Substitutions are numbered along the chain they refer to.
T1: mouse cKIT (Mus musculus, UniProt P05532)
T1 construct: cKIT receptor extracellular domains (ECD) were diluted in a 2-fold series
T1 sequence (P05532 25-527 limits assumed): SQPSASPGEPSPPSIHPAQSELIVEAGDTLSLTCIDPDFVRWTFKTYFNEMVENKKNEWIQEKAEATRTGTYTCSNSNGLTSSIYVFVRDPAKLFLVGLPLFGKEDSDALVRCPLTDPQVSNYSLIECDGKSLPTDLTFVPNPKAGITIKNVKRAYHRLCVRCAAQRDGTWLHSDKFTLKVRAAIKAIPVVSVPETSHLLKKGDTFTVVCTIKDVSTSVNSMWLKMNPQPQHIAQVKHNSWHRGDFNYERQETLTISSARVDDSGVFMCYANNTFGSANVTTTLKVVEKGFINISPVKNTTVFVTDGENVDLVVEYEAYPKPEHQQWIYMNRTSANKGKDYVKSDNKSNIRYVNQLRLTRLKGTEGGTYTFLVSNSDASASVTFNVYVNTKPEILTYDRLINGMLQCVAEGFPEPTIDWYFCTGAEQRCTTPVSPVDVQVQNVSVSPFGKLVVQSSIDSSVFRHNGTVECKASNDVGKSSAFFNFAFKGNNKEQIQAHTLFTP

B1: 9P3: hybridoma derived anti-cKIT antibody, VH SEQ ID NO:9, VL SEQ ID NO:18 (antibody, listed as Homo sapiens, V domains shown)
VH: EVRLVESEGGLVQPRSSMKLSCTASGFTFSDYYMAWVRQVPEKGLEWVANINYDGSSTYYLDSLKSRFIISRDNAKNILYLQMSSLKSEDTATYYCARGDYYGTTYWYFDVWGTGTTVTVSS
VL: DIQMTQTTSSLSASLGDRVTISCRASQDISNYLNWYQQKPDGTVKLLIYYTSRLQSGVPSRFSGSGSGTDYSLTISNLEQEDIATYFCQQGKKLWSFGGGTKLEIKR
B2: NEG027: anti-cKIT antibody of Table 3, VH SEQ ID NO 64, VL SEQ ID NO 73 (antibody, listed as Homo sapiens, V domains shown)
VH: EVQLVESGGGLVQPGGSLRLSCAASGFTFSDYYMAWVRQAPGKGLEWVASINQNTGSTYYLDSVRGRFTISRDNAKNSLYLQMNSLRAEDTAVYYCARGDYYGTTYWYFDVWGQGTTVTVSS
VL: EIVMTQSPATLSLSPGERATLSCRASQDISNYLNWYQQKPGQAPRLLIYYTSRLQSGIPARFSGSGSGTDYTLTISSLEPEDFAVYYCQQGKKLWSFGGGTKVEIK
B3: NEG026: anti-cKIT antibody of Table 3, VH SEQ ID NO 46, VL SEQ ID NO 55 (antibody, listed as Homo sapiens, V domains shown)
VH: B2 VH with S50N, L61V, R65Q
VL: B2 VL
B4: NEG086: anti-cKIT antibody of Table 3, VH SEQ ID NO 100, VL SEQ ID NO 109 (antibody, listed as Homo sapiens, V domains shown)
VH: B2 VH with S50N, N54I, T55A, L61V, R65Q
VL: DIQMTQSPSSLSASVGDRVTITCRASQSISSYLNWYQQKPGKAPKLLIYYTSRLQSGVPSRFSGSGSGTDFTLTISSLQPEDFATYYCQQGRRLWSFGGGTKVEIK
B5: NEG087: anti-cKIT antibody of Table 3, VH SEQ ID NO 118, VL SEQ ID NO 127 (antibody, listed as Homo sapiens, V domains shown)
VH: B2 VH
VL: B4 VL

Legend:
Uke-1 cells = experiment: ADCC activity in vitro (Calcein release, NK3.3 effector cells); assay type: cell-based; conditions: unconjugated IgG1, effector to target ratio 20 to 1
Experimental: The ability of the unconjugated anti-cKIT antibodies (NEG085, 20376) to mediate antibody dependent cellular cytotoxicity was determined versus Uke-1 cells (target cells; generously provided by Professor Walter Fiedler, University Hospital Eppendorf, Hamburg, Germany) in co-incubation with NK3.3 cells (killer cells or effector cells; kindly provided by Jacky Kornbluth from Saint Louis University). […] In order to calculate the antibody specific lysis of the target cells, a parallel incubation of target cells only without antibody or effector cells served as a baseline and negative control, whereas the positive control or maximal lysis or hundred percent specific lysis was determined by lysis of target cells only with a 1% Triton-X 100 solution. […] Following a co-incubation of target and effector cells, the microtiterplate was centrifuged and an aliquot of the supernatant fluid was transferred to another microtiterplate (96 well, flat-bottomed, black with clear bottom; (Corning Costar, catalog #3904, Tewksbury, MA) and the concentration of free Calcein in solution was determined with a fluorescence counter (Victor 3 ® multilabel counter, Perkin Elmer, Waltham, MA).

GIST cell lines = conditions: SR-1 as second therapeutic on Imatinib treated cells; cited from earlier work
SCF binding to cKIT = SCF binding to cKIT (Homo sapiens, UniProt P10721); experiment: competition assays using ELISA and FACS
rat cKIT = experiment: SPR (Biacore) affinity measurement; assay type: binding; conditions: 25° C., 1:1 model
Experimental: (§1) Affinity of the antibodies to cKIT species orthologues and also to cKIT was determined using SPR technology using a Biacore® 2000 instrument (GE Healthcare, Pittsburgh, PA) and with CM5 sensor chips.
(§2) Briefly, HBS-P (0.01 M HEPES, pH 7.4, 0.15 M NaCl, 0.005% Surfactant P20) supplemented with 2% Odyssey® blocking buffer (Li-Cor Biosciences, Lincoln, NE) was used as the running buffer for all the experiments. The immobilization level and analyte interactions were measured by response unit (RU). Pilot experiments were performed to test and confirm the feasibility of the immobilization of the anti-human Fc antibody (Catalog number BR100839, GE Healthcare, Pittsburgh, PA) and the capture of the test antibodies.
(§3) For kinetic measurements, the experiments were performed in which the antibodies were captured to the sensor chip surface via the immobilized anti-human Fc antibody and the ability of the cKIT proteins to bind in free solution was determined. Briefly, 25 μg/ml of anti-human Fc antibody at pH 5 was immobilized on a CM5 sensor chip through amine coupling at flow rate of 5 μl/minute on all two flow cells to reach 10,500 RUs. 0.1-1 μg/ml of test antibodies were then injected at 10 μl/min for 1 minute. Captured levels of the antibodies were generally kept below 200 RUs. Subsequently, 3.125 −50 nM of cKIT receptor extracellular domains (ECD) were diluted in a 2-fold series and injected at a flow rate of 40 μl/min for 3 min over both reference and test flow cells. Table of tested ECDs is listed below (Table 6). Dissociation of the binding was followed for 10 min. After each injection cycle, the chip surface was regenerated with 3 M MgCl2 at 10 μl/min for 30 seconds.

human cKIT = biological target: T2, human cKIT (Homo sapiens, UniProt P10721); experiment: SPR (Biacore) affinity measurement; assay type: binding; conditions: 25° C., 1:1 model
T2 construct: Human cKIT tr. variant 2 , residues 26-520-TAG; made in house; host or cells: HEK293 derived cell line 293FS, transient transfection
Experimental: as §1, §2, §3

mouse cKIT = biological target: T1, mouse cKIT; experiment: SPR (Biacore) affinity measurement; assay type: binding; conditions: 25° C., 1:1 model
Experimental: as §1, §2, §3

Chain of rat cKIT (as listed by the source): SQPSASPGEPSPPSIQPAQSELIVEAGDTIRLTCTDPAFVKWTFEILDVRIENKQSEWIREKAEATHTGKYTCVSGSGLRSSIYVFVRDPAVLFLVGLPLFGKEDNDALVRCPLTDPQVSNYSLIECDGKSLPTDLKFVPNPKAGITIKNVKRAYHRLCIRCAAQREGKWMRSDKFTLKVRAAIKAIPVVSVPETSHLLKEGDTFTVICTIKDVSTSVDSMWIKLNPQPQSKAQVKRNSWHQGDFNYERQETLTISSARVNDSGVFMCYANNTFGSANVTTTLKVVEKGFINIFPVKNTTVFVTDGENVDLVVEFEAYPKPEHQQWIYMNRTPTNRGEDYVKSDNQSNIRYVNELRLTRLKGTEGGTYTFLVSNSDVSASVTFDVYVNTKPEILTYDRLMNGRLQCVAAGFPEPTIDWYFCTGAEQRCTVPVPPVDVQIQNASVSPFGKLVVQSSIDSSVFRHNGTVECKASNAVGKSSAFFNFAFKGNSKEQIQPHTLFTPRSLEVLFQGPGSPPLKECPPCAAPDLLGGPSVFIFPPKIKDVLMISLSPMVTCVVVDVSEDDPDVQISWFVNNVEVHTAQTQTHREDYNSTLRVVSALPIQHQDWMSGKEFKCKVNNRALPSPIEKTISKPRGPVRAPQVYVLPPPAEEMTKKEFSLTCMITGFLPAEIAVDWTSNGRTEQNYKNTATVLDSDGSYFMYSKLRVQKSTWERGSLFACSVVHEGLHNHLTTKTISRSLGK
T2 sequence (P10721 with tags, fused parts or gaps isoform P10721-2): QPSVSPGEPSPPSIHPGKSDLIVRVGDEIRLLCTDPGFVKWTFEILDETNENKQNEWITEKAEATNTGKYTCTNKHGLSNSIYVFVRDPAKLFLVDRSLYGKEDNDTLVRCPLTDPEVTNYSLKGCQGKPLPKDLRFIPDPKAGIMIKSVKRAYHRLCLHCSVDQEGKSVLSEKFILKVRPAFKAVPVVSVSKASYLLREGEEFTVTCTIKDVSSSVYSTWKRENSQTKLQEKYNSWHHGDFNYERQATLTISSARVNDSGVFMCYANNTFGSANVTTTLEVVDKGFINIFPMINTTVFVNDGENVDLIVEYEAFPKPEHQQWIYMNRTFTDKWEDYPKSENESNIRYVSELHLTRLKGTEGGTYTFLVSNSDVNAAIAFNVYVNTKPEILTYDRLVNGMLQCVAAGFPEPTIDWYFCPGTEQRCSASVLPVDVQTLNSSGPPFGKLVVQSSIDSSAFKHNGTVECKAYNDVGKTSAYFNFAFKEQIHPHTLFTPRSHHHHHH
Chain of SCF binding to cKIT (P10721 26-976): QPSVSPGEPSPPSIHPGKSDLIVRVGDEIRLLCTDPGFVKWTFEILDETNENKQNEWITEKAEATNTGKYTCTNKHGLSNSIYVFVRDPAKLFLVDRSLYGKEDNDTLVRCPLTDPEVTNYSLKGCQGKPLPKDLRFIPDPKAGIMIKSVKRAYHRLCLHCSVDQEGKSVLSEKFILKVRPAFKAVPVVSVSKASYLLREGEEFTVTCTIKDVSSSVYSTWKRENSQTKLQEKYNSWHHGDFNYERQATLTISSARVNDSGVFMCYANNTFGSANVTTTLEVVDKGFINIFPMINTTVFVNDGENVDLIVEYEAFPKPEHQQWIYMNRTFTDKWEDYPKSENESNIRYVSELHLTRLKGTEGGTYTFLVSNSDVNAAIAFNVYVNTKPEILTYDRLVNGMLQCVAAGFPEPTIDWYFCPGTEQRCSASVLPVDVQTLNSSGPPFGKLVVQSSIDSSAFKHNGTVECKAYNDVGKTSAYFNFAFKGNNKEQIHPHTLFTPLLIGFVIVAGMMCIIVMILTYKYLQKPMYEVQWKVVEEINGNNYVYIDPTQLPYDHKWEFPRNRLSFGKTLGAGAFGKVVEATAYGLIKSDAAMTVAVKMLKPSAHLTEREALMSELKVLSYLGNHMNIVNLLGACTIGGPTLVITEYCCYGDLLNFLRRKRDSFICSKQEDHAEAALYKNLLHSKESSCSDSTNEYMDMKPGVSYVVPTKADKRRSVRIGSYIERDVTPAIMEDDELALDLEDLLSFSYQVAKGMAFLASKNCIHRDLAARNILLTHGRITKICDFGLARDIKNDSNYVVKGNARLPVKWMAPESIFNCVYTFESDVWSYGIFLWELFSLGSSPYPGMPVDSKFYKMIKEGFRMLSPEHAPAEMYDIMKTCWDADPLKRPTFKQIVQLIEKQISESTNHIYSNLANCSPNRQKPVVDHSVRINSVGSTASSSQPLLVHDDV

Molecule	ADCC killing of target cells (Uke-1 cells)	proliferation of GIST cells (GIST cell lines)	blocking of SCF binding to cKIT (SCF binding to cKIT)	Affinity to rat cKIT (nM) (rat cKIT)	Affinity human cKIT (nM) (human cKIT)	Affinity mouse cKIT (nM) (mouse cKIT)
MabCampath® [reference compound]	mediated ADCC killing					
Cc1ccc(NC(=O)c2ccc(CN3CCN(C)CC3)cc2)cc1Nc1nccc(-c2cccnc2)n1 [imatinib]		significantly reduce proliferation				
B1			partial blocking	Not reactive	nanomolar level	Not reactive
B2				Not reactive	nanomolar level	Not reactive
B3				Not reactive		Not reactive
B4				Not reactive	nanomolar level	Not reactive
B5				Not reactive	nanomolar level	Not reactive

From patent publication US11833215B2, “CKIT antibody drug conjugates” (Novartis AG, priority 2014, dated 2023)
